The text below walks through data of patent US12065466B2, “Methods and compositions for protein sequencing” (Quantum-Si Incorporated, priority 2020, dated 2024).

Like-named read-outs stand apart in the source and are kept apart here.

Assay [1] has as its system amino acid at a terminal position of a polypeptide. Kind of assay: Amino acid binding preference of recognition proteins (Tables 1 and 2). Conditions: Table 1, ClpS proteins; amino acid identity at a terminal position of a polypeptide; inferred from literature and/or demonstrated by the inventors. The text has this:
It should be appreciated that these sequences and other examples described herein are meant to be non-limiting, and recognition molecules in accordance with the application can include any homologs, variants thereof, or fragments thereof minimally containing domains or subdomains responsible for peptide recognition.

In assay [2] the test system is FA, LF, WA, and YA peptides. Nature of the assay: Binder-on-chip single-molecule assay (PS218 and wild-type atClpS1). In kind it is binding. Further details: unit not given here. The method, then:
A variant of atClpS1 was created with active-site substitutions rationally designed to achieve longer pulse widths which can be favorable in single-molecule sequencing reactions. The designed variant (PS218) contains the following mutations relative to wild-type atClpS1: M51F, E52Q, M73T, T70 W. Binder-on-chip experiments were performed for PS218 with FA, LF, WA, and YA peptides to evaluate recognition by signal pulse detection in single-molecule assays. As shown by the results in Table 7, the substitutions relative to the wild-type protein result in longer pulse widths with each peptide tested.

Assay [3] has as its system amino acid at a terminal position of a polypeptide. Conditions: Table 2; amino acid identity at a terminal position (phosphotyrosine also internal); inferred from literature and/or demonstrated by the inventors; cited from earlier work.
Assay [4] concerns immobilized peptides containing N-terminal R, K or H. Nature of the assay: Biolayer interferometry of UBR-box domain homologs. In kind it is binding. As to conditions: for binding to RA/KA/HA peptides (single-point screening): 30° C., XAKLDEESILKQK; for binding range for RX dipeptides / dissociation rates with R dipeptides: 14 peptides RXGGGDDDFFK (SEQ ID NO: 241); for binding affinity to N-terminal R with different penultimate amino acids: 14 polypeptides containing N-terminal R. The method, then: The amino acid binding properties of UBR-box domain homologs were evaluated by biolayer interferometry. Peptides containing an N-terminal arginine (R), followed by different amino acids in the penultimate position, were immobilized on a biolayer interferometry sensor surface, allowed to bind to UBR-box protein, and incubated in buffer to allow the UBR-box molecules to dissociate. […] FIG. 32C is a heatmap showing results measured for 24 UBR-box homologs against 14 polypeptides containing N-terminal R followed by different amino acids in the penultimate position.
UBR proteins bind to the basic N-terminal residues R, K, and H as part of the conserved N-end rule pathway. To identify high-affinity UBR proteins with properties favorable for use in sequencing, a diverse panel of uncharacterized UBR-box domain homologs from 44 species (PS501-PS544) was designed. UBR-box domain homologs were expressed, purified, and evaluated for binding to N-terminal amino acids by biolayer interferometry. Measurements were carried out at 30° C. for each protein for R, K and H binding. The amino-acid binding profile of each new homolog was first evaluated by biolayer interferometry using a single-point screening assay. All peptides in this screen contained a penultimate alanine (A) and consisted of the sequence XAKLDEESILKQK (SEQ ID NO: 238), where X is R, K, or H.
To evaluate the effect of penultimate amino acids on arginine binding, UBR box-domain homologs were evaluated for binding to 14 different peptides with N-terminal RX (peptide sequence: RXGGGDDDFFK (SEQ ID NO: 241)). The selected RX dipeptides are the 14 most frequently found in the human proteome.

B1: PS218: designed variant of atClpS1 with active-site substitutions, SEQ ID NO: 98 (protein)
chain: MIAEPICMQGEGDGEDGGTNRGTSVITRVKPKTKRPNLYRVLLLNDDYTPFQFVIHILERFFQKDREAAWRITLHVHQHGVGECGVFTYEVAETKVSQVMDFARQHQHPLQCVMEKK
B1: the “Binding Pref.” value in assay [1] is on record as “F, W, Y, L”. The “Median PW” value in assay [2] (FA peptide) is recorded as 0.78; in assay [2] (LF peptide), 0.32; in assay [2] (WA peptide) it was 0.58; in assay [2] (YA peptide), 1.06. In addition, the mean pulse width was found to be 1.28 in assay [2] (FA peptide), 0.56 in assay [2] (LF peptide), 1.00 in assay [2] (WA peptide) and 1.64 in assay [2] (YA peptide).

B2: PS629: UBR-box domain homolog, SEQ ID NO: 189 (protein, listed as Pichia pastoris)
chain: MCPNYKHHGRPCARQFKQGEPIYRCYECGFDETCVMCMHCFNREQHRDHEVSISIASSSNDGICDCGDPQAWNIELHCQSELD
Consider B2, for which the “Binding Pref.” value in assay [3] is listed as “K, R, H”.

B3: PS538: UBR-box domain homolog, SEQ ID NO: 166 (protein, listed as Saccharomyces cerevisiae)
chain: MGDVHKHTGRNCGRKFKIGEPLYRCHECGCDDTCVLCIHCFNPKDHVNHHVCTDICTEFTSGICDCGDEEAWNSPLHCKAEEQ
As to B3, in assay [4], the “binding to RA/KA/HA peptides (single-point screening)” value (“binding to RA/KA/HA peptides” for short) is “favorable binding trajectories to RA and KA peptides with notably high response for RA peptide”. Moreover, the “Binding Pref.” value in assay [3] is “K, R, H”.

B4: PS625: UBR-box domain homolog, SEQ ID NO: 185 (protein, listed as Saccharomyces eubayanus)
chain: MGDVHKHTGRNCGRKFKIGEPLYRCHECGCDDTCVLCIHCFNPKDHINHHVCTDICSEFTSGICDCGDEEAWNSSLHCKAEEQ
Turning to B4, the “Binding Pref.” value in assay [3] is reported as “K, R, H”.

B5: PS626: UBR-box domain homolog, SEQ ID NO: 186 (protein, listed as Zygosaccharomyces parabailii)
chain: MYHVYKHSGRNCGRKFKVGEPIYRCHECGYDETCVLCIHCFNPKDHDSHHVYIDICSEFSTGICDCGDTEAFVNPLHCKAEED
In the case of B5, the “Binding Pref.” value in assay [3] was “K, R, H”.

B6: PS620: UBR-box domain homolog, SEQ ID NO: 180 (protein, listed as Saccharomyces cerevisiae)
chain: MGNMHIGTACTRLCFPSETIYYCFTCSTNPLYEICELCFDKEKHVNHSYVAKVVMRPEGRICHCGDPFAFNDPSDAFKCKN
In the case of B6, in assay [3], the “Binding Pref.” value is reported as “K, R, H”.

B7: PS623: UBR-box domain homolog, SEQ ID NO: 183 (protein, listed as Kazachstania naganishii)
chain: MSKQFRHKGRNCGRKFRLGEPLYRCQECGYDDTCVLCINCFNPKDHEGHHIYTDICNDFTSGICDCGDEEAWLSPLHCKAEED
In the case of B7, the “Binding Pref.” value in assay [3] is recorded as “K, R, H”.

B8: PS522: UBR-box domain homolog, SEQ ID NO: 150 (protein, listed as Vombatus ursinus)
chain: MLCGKVFKSGETTYSCRDCAIDPTCVLCMNCFQSSVHKNHRYKMHTSTGGGFCDCGDTEAWKTGPFCTIHEP
With B8, in assay [4], the “binding range for RX dipeptides” value is on record as “extensive binding range for RX dipeptides”; the “dissociation rates with R dipeptides” value was “faster dissociation rates”; the “binding affinity to N-terminal R with different penultimate amino acids” value is on record as “high binding affinity to R in the presence of a wide range of penultimate amino acids”; the “binding to RA/KA/HA peptides” value was “favorable binding trajectories to RA and KA peptides with notably high response for RA peptide”. Moreover, the “Binding Pref.” value in assay [3] is “K, R, H”.

B9: Escherichia coli leucyl/phenylalanyl-tRNA-protein transferase: amino acid recognition protein, SEQ ID NO: 111 (protein, listed as Escherichia coli)
chain: MRLVQLSRHSIAFPSPEGALREPNGLLALGGDLSPARLLMAYQRGIFPWFSPGDPILWWSPDPRAVLWPESLHISRSMKRFHKRSPYRVTMNYAFGQVIEGCASDREEGTWITRGVVEAYHRLHELGHAHSIEVWREDELVGGMYGVAQGTLFCGESMFSRMENASKTALLVFCEEFIGHGGKLIDCQVLNDHTASLGACEIPRRDYLNYLNQMRLGRLPNNFWVPRCLFSPQELE
With B9, the “Binding Pref.” value in assay [3] was “K, R”.

B10: PS628: UBR-box domain homolog, SEQ ID NO: 188 (protein)
chain: MSHRAYHKNSPCGRIFRKGEPIHRCLTCGFDDTCALCSHCFQPEYHEGHKVHIGICQRENGGVCDCGDPEAWTQELFCPYAVD
modifications: Candida albicans
With B10, the “Binding Pref.” value in assay [3] is recorded as “K, R, H”.

B11: PS617: UBR-box domain homolog, SEQ ID NO: 177 (protein, listed as Eremothecium sinecaudum)
chain: MPKEHRGTSCNKHCQPTETVYYCFDCTKNPLYEICEECFDADKHLGHRWTSKVVSRPEGKICHCGDPSGLTDPENGYECKN
As to B11, in assay [3], the “Binding Pref.” value is “K, R, H”.

B12: H. sapiens Fyn SH2 domain: SEQ ID NO: 116 (protein, listed as Homo sapiens)
chain: MGAMDSIQAEEWYFGKLGRKDAERQLLSFGNPRGTFLIRESETTKGAYSLSIRDWDDMKGDHVKHYKIRKLDNGGYYITTRAQFETLQQLVQHYSERAAGLSSRLVVPSHK
As to B12, in assay [3], the “Binding Pref.” value was “phospho-Y”.

B13: PS627: UBR-box domain homolog, SEQ ID NO: 187 (protein, listed as Zygosaccharomyces mellis)
chain: MPKYHQHSGRYCGRKFKVGEPIYRCHECGFDETCVICIHCFNAKDHETHHVSVSICSEYSTGICDCGDTEAFVNPLHCRAEEV
Regarding B13, the “Binding Pref.” value in assay [3] is “K, R, H”.

B14: PS505: UBR-box domain homolog, SEQ ID NO: 133 (protein, listed as Brachionus plicatilis)
chain: MVCGRVFKSGEPSYFCRECGTDPTCVLCSICFRHSKHRYHKYVMMTSGGGGYCDCGDPEAWKSDPCCELHMP
As to B14, the “binding affinity to N-terminal R with different penultimate amino acids” value in assay [4] is “high binding affinity to R in the presence of a wide range of penultimate amino acids”. In addition, in assay [3], the “Binding Pref.” value is “K, R, H”.

B15: PS618: UBR-box domain homolog, SEQ ID NO: 178 (protein, listed as Zygosaccharomyces bailii)
chain: MNASHKGAMCSKQCYPTETVFYCFTCTTNPLYEICESCFDEEKHRGHLYTAKVVVRPEGRVCHCGDPFVFKEPRFAFLCKN
In the case of B15, in assay [3], the “Binding Pref.” value is reported as “K, R, H”.

B16: PS624: UBR-box domain homolog, SEQ ID NO: 184 (protein, listed as Eremothecium sinecaudum)
chain: MPKNHNHKGRNCGRSFQPGEPLYRCQECAYDDTCVLCIRCFNPLDHVNHHVSTHICSEFNDGICDCGDVEAWNVELNCKAEED
For B16, the “Binding Pref.” value in assay [3] is recorded as “K, R, H”.

B17: PS622: UBR-box domain homolog, SEQ ID NO: 182 (protein, listed as Kluyveromyces dobzhanskii)
chain: MHSRFNHAGRICASKFKVGEPIYRCKECSFDDTCVICVNCFNPKDHVGHHVYTSICSEFNNGICDCGDTEAWNHDMHCKADEN
On to B17, for which the “Binding Pref.” value in assay [3] was “K, R, H”.

B18: PS535: UBR-box domain homolog, SEQ ID NO: 163 (protein, listed as Mus musculus)
chain: MLCGRVFKVGEPTYSCRDCAVDPTCVLCMECFLGSIHRDHRYRMTTSGGGGFCDCGDTEAWKEGPYCQKHKL
For the molecule B18, in assay [4], the “binding range for RX dipeptides” value is recorded as “extensive binding range for RX dipeptides”; the “dissociation rates with R dipeptides” value was “faster dissociation rates”; the “binding affinity to N-terminal R with different penultimate amino acids” value is given as “high binding affinity to R in the presence of a wide range of penultimate amino acids”; the “binding to RA/KA/HA peptides” value is “favorable binding trajectories to RA and KA peptides with notably high response for RA peptide”. Further, the “Binding Pref.” value in assay [3] is given as “K, R, H”.

B19: PS619: UBR-box domain homolog, SEQ ID NO: 179 (protein, listed as Vanderwaltozyma polyspora)
chain: MENLHIGSCCNRQCYPTQTVYYCLTCTINPLYEICELCFDEDKHVGHTYISKSVIRPEGKVCHCGNPNVFKKPEFAFNCKN
On to B19, for which the “Binding Pref.” value in assay [3] is given as “K, R, H”.
